{"source": "paper PMC4385502", "about": "(Molecular cell, 2015)", "proteins": {"B1": {"name": "RIG-I-TD (RIG-I triple deamidation mutant) (natural protein)", "chain": "MTTEQRRSLEAFQDYIRKTLDPTYILSYMAPWFREEEVQYIQAEKNNKGPMEAATLFLKFLLELQEEGWFRGFLDALDHAGYSGLYEAIESWDFKKIEKLEEYRLLLKRLQPEFKTRIIPTDIISDLSECLINQECEEILQICSTKGMMAGAEKLVECLLRSDKENWPKTLKLALEKERNKFSELWIVEKGIKDVETEDLEDKMETSDIQIFYQEDPECQNLSENSCPPSEVSDTNLYSPFKPRDYQLELALPAMKGKNTIICAPTGCGKTFVSLLICEHHLKKFPQGQKGKVVFFANQIPVYEQQKSVFSKYFERHGYRVTGISGATAENVPVEQIVENNDIIILTPQILVNNLKKGTIPSLSIFTLMIFDECHNTSKQHPYNMIMFNYLDQKLGGSSGPLPQVIGLTASVGVGDAKNTDEALDYICKLCASLDASVIATVKHDLEELEQVVYKPQKFFRKVESRISDKFKYIIAQLMRDTESLAKRICKDLENLSQIQNREFGTQKYEQWIVTVQKACMVFQMPDKDEESRICKALFLYTSHLRKYNDALIISEHARMKDALDYLKDFFSNVRAAGFDEIEQDLTQRFEEKLQELESVSRDPSNENPKLEDLCFILQEEYHLNPETITILFVKTRALVDALKNWIEGNPKLSFLKPGILTGRGKTNQNTGMTLPAQKCILDAFKASGDHNILIATSVADEGIDIAQCNLVILYEYVGNVIKMIQTRGRGRARGSKCFLLTSNAGVIEKEQINMYKEKMMNDSILRLQTWDEAVFREKILHIQTHEKFIRDSQEKPKPVPDKENKKLLCRKCKALACYTADVRVIEECHYTVLGDAFKECFVSRPHPKPKQFSSFEKRAKIFCARQNCSHDWGIHVKYKTFEIPVIKIESFVVEDIATGVQTLYSKWKDFHFEKIPFDPAEMSK"}}, "target": "the molecule itself", "test": "SEC"}
{"protein": "B1", "values": [{"measurement": "binding result", "value": "binds"}]}
